Results published in US20250340667A1, “Cancer Treatment comprising an anti-MSLN/CD137 antibody and a chemotherapeutic” (Merck Patent GmbH, priority 2022, published 2025).
Where a chain is given by its changes, count along the chain named. Several values for one entry are separate records, joined by “and”; a condition that tells them apart may be missing. Identical values can stand only once. Like-named read-outs stand apart in the source and are kept apart here.

T1: mouse MSLN (Mus musculus, UniProt Q61468)
T1 sequence (Q61468 36-600): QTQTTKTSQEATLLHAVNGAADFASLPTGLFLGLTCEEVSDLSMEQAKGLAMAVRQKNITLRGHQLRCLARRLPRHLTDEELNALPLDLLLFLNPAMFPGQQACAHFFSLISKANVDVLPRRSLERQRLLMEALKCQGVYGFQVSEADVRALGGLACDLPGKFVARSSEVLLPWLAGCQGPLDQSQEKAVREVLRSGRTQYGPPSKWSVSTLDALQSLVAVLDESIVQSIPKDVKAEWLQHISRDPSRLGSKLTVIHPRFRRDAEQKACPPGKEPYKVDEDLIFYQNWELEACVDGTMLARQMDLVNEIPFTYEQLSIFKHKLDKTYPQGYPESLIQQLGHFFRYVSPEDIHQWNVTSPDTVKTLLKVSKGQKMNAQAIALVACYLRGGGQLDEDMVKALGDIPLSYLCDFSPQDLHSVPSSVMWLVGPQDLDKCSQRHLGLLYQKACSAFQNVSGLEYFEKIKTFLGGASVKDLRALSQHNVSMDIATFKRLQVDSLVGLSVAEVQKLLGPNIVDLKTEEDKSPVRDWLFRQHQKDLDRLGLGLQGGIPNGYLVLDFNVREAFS

B1: FS122m: mouse surrogate mAb2 of M9657 binding mouse MSLN and murine CD137, human IgG1 LALA; SEQ ID NOs 84 and 85 (antibody)
heavy: EVQLLESGGGLVQPGGSLRLSCAASGFTFSTYFMVWVRQAPGKGLEWVSMISPKSSNTYYADSVKGRFTISRDNSKNTLYLQMNSLRAEDTAVYYCARYHISPRFDYWGQGTLVTVSSASTKGPSVFPLAPSSKSTSGGTAALGCLVKDYFPEPVTVSWNSGALTSGVHTFPAVLQSSGLYSLSSVVTVPSSSLGTQTYICNVNHKPSNTKVDKKVEPKSCDKTHTCPPCPAPEAAGGPSVFLFPPKPKDTLMISRTPEVTCVVVDVSHEDPEVKFNWYVDGVEVHNAKTKPREEQYNSTYRVVSVLTVLHQDWLNGKEYKCKVSNKALPAPIEKTISKAKGQPREPQVYTLPPSRDEPYWSYVSLTCLVKGFYPSDIAVEWESNGQPENNYKTTPPVLDSDGSFFLYSKLTVMNYRWELGNVFSCSVMHEALHNHYTQKSLSLSPGK
light: EIVLTQSPGTLSLSPGERATLSCRASQSVSSSYLAWYQQKPGQAPRLLIYGASSRATGIPDRFSGSGSGTDFTLTISRLEPEDFAVYYCQQPFPFSFTFGQGTKVEIKRTVAAPSVFIFPPSDEQLKSGTASVVCLLNNFYPREAKVQWKVDNALQSGNSQESVTEQDSKDSTYSLSSTLTLSKADYEKHKVYACEVTHQGLSSPVTKSFNRGEC
modifications: FS122m (surrogate anti-mMSLN mCD137 Fcab G1-AA): Heavy chain AA (with LALA); Light chain AA
B2: M9657: tetravalent bispecific mAb2, Fab binds MSLN, CH3 Fcab binds CD137, human IgG1-LALA; heavy/light chain SEQ ID NOs 2 and 10 (antibody)
heavy: EVQLLESGGGLVQPGGSLRLSCAASGFTFTHTYMSWVRQAPGKGLEWVSAISPTYSTTNYADSVKGRFTISRDNNKNTLYLQMNSLRAEDTAVYYCARYNAYHAALDYWGQGTLVTVSSASTKGPSVFPLAPSSKSTSGGTAALGCLVKDYFPEPVTVSWNSGALTSGVHTFPAVLQSSGLYSLSSVVTVPSSSLGTQTYICNVNHKPSNTKVDKKVEPKSCDKTHTCPPCPAPEAAGGPSVFLFPPKPKDTLMISRTPEVTCVVVDVSHEDPEVKFNWYVDGVEVHNAKTKPREEQYNSTYRVVSVLTVLHQDWLNGKEYKCKVSNKALPAPIEKTISKAKGQPREPQVYTLPPSRDELPYIIPPYNQVSLTCLVKGFYPSDIAVEWESNGQPENNYKTTPPVLDSDGSFFLYSKLTVGADRWLEGNVFSCSVMHEALHNHYTQKSLSLSPG
light: B1 light with P92T, F93V, F95Y, S96P, F97Y
modifications: Heavy chain AA (with LALA); Light chain AA

Columns and labels:
JC breast cancer cells = assay type: in vivo; settings: for tumor growth inhibition (TGI): FS122m 5 mg/kg ip Days 0, 2, 4; for complete tumor regression: number of mice with complete regression per group
Description: (§1) The efficacy of the combination of an antibody molecule that binds MSLN and CD137 and a chemotherapeutic in enhancing an anti-cancer immune response compared to monotherapy with either the antibody molecule that binds MSLN and CD137 or the chemotherapeutic was assessed by studying the average tumour volume over time and prolonged survival in mouse tumour models. These mouse tumor models are described in more detail below.
(§2) CT26 cells were obtained from ATCC and cultured in RPMI media containing 2 mM L-glutamine, 10 mM HEPES, 1 mM sodium pyruvate, 4500 mg/L glucose, 1500 mg/L sodium bicarbonate, and 10% fetal bovine serum (FBS). JC cells were obtained from ATCC and were maintained in vitro as a monolayer culture at WuXi in RPMI-1640 supplemented with 10% heat-inactivated FBS. These tumor cell lines were individually maintained in vitro as monolayer cultures and grown at 37° C. in an atmosphere of 5% CO2. The cells were routinely sub-cultured twice weekly by TrypLE treatment. The cells growing in an exponential growth phase were harvested and counted for tumor inoculation. Wild-type BALB/c female mice were purchased from Charles River Laboratories, or from Lingchang Biological Technology Co. LTD. All mice were 8-12 weeks old at the start of studies and were housed and maintained as described below, under conditions that conform to The Guide for the Care and Use of Laboratory Animals, 8th Edition. All animal experiments were performed in accordance with EMD Serono Research Institutional (protocol 17-008, 20-005) and Wuxi AppTec Animal Care and Use Committee (IACUC) guidelines.
(§3) CT26 and JC tumor models were used to investigate the antitumor effect of a combination of an antibody molecule that binds MSLN and CD137 and a chemotherapeutic compared to monotherapy with the antibody molecule that binds MSLN and CD137 or the chemotherapeutic. Mice were treated with the anti-mMSLN-mCD137-huIgG1-LALA antibody molecule FS122m in combination with either of the two chemotherapeutics cisplatin or gemcitabine. For the CT26 model, female BALB/c mice were inoculated via subcutaneous (sc) injection in the right flank with 0.3×10^6 CT26 cells in 0.1 mL of PBS. Mice were randomized to treatment groups (n=10 mice/group) when the average tumor volume reached approximately 50-100 mm^3. For the JC model, female BALB/c mice were inoculated via sc injection at the right upper flank with JC tumor cells (5×10^6) in 0.1 mL of PBS. Treatments were started on day 14 after tumor inoculation when the average tumor size reached approximately 80 mm^3. FS122m and anti-HEL hIgG1 LALA isotype control were given as 5 mg/kg on the first, third and fifth day of treatment (Days 0, 2, and 4) via intraperitoneal (ip) injection. Cisplatin was given on Day 0 at 10 mg/kg via ip injection, and gemcitabine was given on Day 0 at 120 mg/kg via ip injection.
(§4) Mortality checks were performed once daily. Animals were checked daily for any effects of tumor growth and treatments on normal behavior such as mobility, food and water consumption (by looking only), eye/hair matting and any other abnormal effect as stated in the protocol. Body weights were recorded twice weekly and any mouse with a 20% loss of initial body weight loss was humanely sacrificed. Mice were humanely euthanized if their subcutaneous tumors reached a volume of 2500 mm^3.
(§5) Body weight was measured and recorded twice weekly until an endpoint was reached. Tumor sizes were measured twice per week in three dimensions using a caliper, and the volume was expressed in mm^3 using the formula: width×length×height×0.5236.
(§6) Differences in tumor growth between treatment groups were determined using two-way analysis of variance (ANOVA) and Tukey's Multiple Comparisons Test. The significance of survival was determined using Log-rank (Mantel-Cox) test. […]

CT26 colon cancer cells = assay type: in vivo; settings: for tumor growth inhibition (TGI): relative to the isotype control; for median survival: isotype control 17 days; for complete tumor regression: number of mice with complete regression per group
Description: as §1, §2, §3, §4, §5, §6

CD137 = target: T2, CD137 (Homo sapiens, UniProt Q07011); settings: monotherapy clinical studies, suspended; cited from earlier work
T2 construct: Clinical studies of both utomilumab and urelumab monotherapy were however suspended; host or cells: patients (endogenous CD137)

mouse CD137 = mouse CD137 (Mus musculus, UniProt P20334); assay: Binding / cross-reactivity to mouse CD137
mouse MSLN = target: T1, mouse MSLN; assay: Binding / cross-reactivity to mouse MSLN
[1] = cisplatin combination study, Day 22 post treatment initiation, compared with the isotype control, cisplatin 10 mg/kg ip Day 0
[2] = cisplatin combination study, isotype control 22 days
[3] = cisplatin combination study, Day 17, FS122m 5 mg/kg ip Days 0, 2, 4, cisplatin 10 mg/kg ip Day 0
[4] = cisplatin combination study, FS122m 5 mg/kg ip Days 0, 2, 4, cisplatin 10 mg/kg ip Day 0
[5] = gemcitabine combination study, Day 25, relative to the isotype control, gemcitabine 120 mg/kg ip Day 0
[6] = gemcitabine combination study, isotype control 27 days
[7] = gemcitabine combination study, monotherapies Day 14, combination compared on Day 18, FS122m 5 mg/kg ip Days 0, 2, 4, gemcitabine 120 mg/kg ip Day 0

Chain of mouse CD137 (P20334 24-256): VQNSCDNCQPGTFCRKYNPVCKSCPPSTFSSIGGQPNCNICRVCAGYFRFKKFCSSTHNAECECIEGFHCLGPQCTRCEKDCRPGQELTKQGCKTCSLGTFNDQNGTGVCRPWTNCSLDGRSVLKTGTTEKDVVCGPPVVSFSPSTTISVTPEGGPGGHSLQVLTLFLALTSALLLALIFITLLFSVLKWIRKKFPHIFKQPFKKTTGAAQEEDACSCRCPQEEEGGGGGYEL
T2 sequence (Q07011 24-255): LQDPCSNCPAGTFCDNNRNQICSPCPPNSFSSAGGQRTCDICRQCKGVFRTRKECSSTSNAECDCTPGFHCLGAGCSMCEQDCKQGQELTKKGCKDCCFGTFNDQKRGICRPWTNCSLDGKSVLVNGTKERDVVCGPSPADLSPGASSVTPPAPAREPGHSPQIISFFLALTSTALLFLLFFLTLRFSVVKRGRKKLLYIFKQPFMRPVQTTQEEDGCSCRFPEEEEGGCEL

Molecule	tumor growth inhibition (TGI) (JC breast cancer cells; [1])	median survival (JC breast cancer cells; [2])	complete tumor regression (JC breast cancer cells; cisplatin combination study)	complete tumor regression (JC breast cancer cells; gemcitabine combination study)	tumor growth inhibition (TGI) (CT26 colon cancer cells; [3])	median survival (CT26 colon cancer cells; [4])	complete tumor regression (CT26 colon cancer cells; cisplatin combination study)	complete tumor regression (CT26 colon cancer cells; gemcitabine combination study)	clinical toxicity (CD137)	tumor growth inhibition (TGI) (JC breast cancer cells; [5])	median survival (JC breast cancer cells; [6])	median survival (CT26 colon cancer cells; gemcitabine combination study)	tumor growth inhibition (TGI) (CT26 colon cancer cells; [7])	binding affinity for mouse CD137 (mouse CD137; compared with binding affinity of M9657 for human CD137)	binding affinity for mouse MSLN (mouse MSLN; compared with binding affinity of M9657 for human MSLN)	cross-reactivity with mouse CD137 (mouse CD137)	cross-reactivity with mouse MSLN (mouse MSLN)
N.N.[Cl][Pt][Cl] [cisplatin]	44.9%	29 days	no complete tumor regression in 10 mice	no complete tumor regression in 10 mice	77.8%	36.5 days	no complete tumor regression in 10 mice	no complete tumor regression in 9 mice									
urelumab: 1st generation CD137 agonist antibody									hepatotoxicity								
Nc1ccn([C@@H]2O[C@H](CO)[C@@H](O)C2(F)F)c(=O)n1 [gemcitabine]				no complete tumor regression in 10 mice				no complete tumor regression in any of 9 mice		47.8%	36 days	22 days	58.2%				
B1	60.1%	33 days	2 of 10	1 of 10 and 1 out of 10	61.3%	24 days	2 of 10 and 2 out of 10	3 of 9		45.8%	34 days	35 days	61.4%	similar	similar		
B2																lack of cross-reactivity	lack of cross-reactivity
